In US20170183415A1 (published 2017):

T1: immobilized CD123 (UniProt P26951 19-305)
T1 chain: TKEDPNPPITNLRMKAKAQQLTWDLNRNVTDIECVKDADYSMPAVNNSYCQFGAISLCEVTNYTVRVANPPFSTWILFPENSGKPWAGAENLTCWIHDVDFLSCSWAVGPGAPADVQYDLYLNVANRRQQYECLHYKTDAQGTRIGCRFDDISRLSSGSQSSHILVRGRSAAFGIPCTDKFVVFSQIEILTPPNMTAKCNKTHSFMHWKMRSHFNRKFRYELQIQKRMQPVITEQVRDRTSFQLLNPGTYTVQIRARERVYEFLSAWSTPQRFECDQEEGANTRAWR


How the values were obtained:
CD123_AC = test: ELISA; FIG. 30A
CD123_CA = test: ELISA; FIG. 30A
CD123_DA = test: ELISA; FIG. 30A
CD123_BD = test: ELISA; FIG. 30A
CD123_AD = test: ELISA; FIG. 30A
CD123_BC = test: ELISA; FIG. 30B
immobilized CD123 [1] = biological target: T1, immobilized CD123; test: ELISA; FIG. 30A
immobilized CD123 [2] = biological target: T1, immobilized CD123; test: ELISA; FIG. 30B

| Kd (CD123_AC) | Kd (CD123_CA) | Kd (CD123_DA) | Kd (CD123_BD) | Kd (CD123_AD) | Kd (CD123_BC) | Kd (immobilized CD123 [1]) | Kd (immobilized CD123 [2]) | Binder |
| --- | --- | --- | --- | --- | --- | --- | --- | --- |
| 1.83 nM | 10.2 nM | 2.8 nM | 1.12 nM | 1.77 nM | 3.25 nM |  |  | CD123 (receptor) TKEDPNPPITNLRMKAKAQQLTWDLNRNVTDIECVKDADYSMPAVNNSYCQFGAISLCEVTNYTVRVANPPFSTWILFPENSGKPWAGAENLTCWIHDVDFLSCSWAVGPGAPADVQYDLYLNVANRRQQYECLHYKTDAQGTRIGCRFDDISRLSSGSQSSHILVRGRSAAFGIPCTDKFVVFSQIEILTPPNMTAKCNKTHSFMHWKMRSHFNRKFRYELQIQKRMQPVITEQVRDRTSFQLLNPGTYTVQIRARERVYEFLSAWSTPQRFECDQEEGANTRAWR |
|  |  |  |  |  |  | 2.56 nM | 1.04 nM | parent mouse scFv (anti-CD123, clone 32716) (scFv) scFv: DIVLTQSPASLAVSLGQRATISCRASESVDNYGNTFMHWYQQKPGQPPKLLIYRASNLESGIPARFSGSGSRTDFTLTINPVEADDVATYYCQQSNEDPPTFGAGTKLELKGGGGSGGGGSSGGGSQIQLVQSGPELKKPGETVKISCKASGYIFTNYGMNWVKQAPGKSFKWMGWINTYTGESTYSADFKGRFAFSLETSASTAYLHINDLKNEDTATYFCARSGGYDPMDYWGQGTSVTVSS |
